Source: patent publication US20120301468A1, “ANTI-MN ANTIBODIES AND METHODS OF USING SAME” (BAYER HEALTHCARE LLC, priority 2005, published 2012)

Target: human MN protein, entire extra-cellular domain with a C-terminal histag, expressed in HKB-11 cells (human), Q16790
Assay: SPR, BIAcore 3000, IgG captured by anti-human IgG Fc, MN as analyte, 1:1 Langmuir fit
Conditions: remark: other sources report otherwise

- Kd: 1 nM
B1: 3a4 full-length human IgG1 (antibody, V domains shown)
VH: QVELVESGGGLVQPGGSLRLSCAASGFTFSDYSINWVRQAPGKGLEYVSNISYSGSSTYYADSVKGRFTISRDNSKNTLYLQMNSLRAEDTAVYYCARFKYSGGSDSWGQGTLVTVSS
VL: DIELTQPPSVSVAPGQTARISCSGDNLPDFYVHWYQQKPGQAPVLVISEDNKRPSGIPERFSGSNSGNTATLTISGTQAEDEADYYCSTYGYTYSYSVFGGGTKLTVL
